Results: patent US20250043019A1 (Janssen / Centocor, published 2025)

T1: human CD79b and CD20 co-expressed on the surface of B-lymphoma cell lines or primary B cells (human, UniProt P11836 1-297)
T1 sequence 1: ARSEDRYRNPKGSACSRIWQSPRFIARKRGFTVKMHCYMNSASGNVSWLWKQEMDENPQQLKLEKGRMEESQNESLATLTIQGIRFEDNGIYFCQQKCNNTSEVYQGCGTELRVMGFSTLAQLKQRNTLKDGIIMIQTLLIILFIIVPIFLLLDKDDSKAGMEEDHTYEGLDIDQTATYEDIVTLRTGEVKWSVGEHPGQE
T1 sequence 2: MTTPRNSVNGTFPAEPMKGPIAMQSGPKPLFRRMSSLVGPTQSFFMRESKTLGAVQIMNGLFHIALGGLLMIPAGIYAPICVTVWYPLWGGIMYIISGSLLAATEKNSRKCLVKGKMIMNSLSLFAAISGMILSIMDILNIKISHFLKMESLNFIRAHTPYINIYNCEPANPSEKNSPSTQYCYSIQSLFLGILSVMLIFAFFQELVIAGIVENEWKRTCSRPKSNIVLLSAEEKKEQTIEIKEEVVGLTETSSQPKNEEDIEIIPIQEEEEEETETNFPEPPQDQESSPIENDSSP

T2: human CD79b on the cell surface (human, UniProt P40259 29-229)
T2 sequence: T1 sequence 1

B1: C923B95 CD79bxCD20xCD3 trispecific antibody (other)
heavy: QVQLQESGPGLVKPSQTLSLTCTVSGVSISNYYWSWIRQPPGKGLEWIGRISPSGRTNYNPSLKSRVTMSLDASKNQFSLKLSSVTAADTAVYYCARGEYSGTYSYSFDIWGQGTMVTVSSASTKGPSVFPLAPSSKSTSGGTAALGCLVKDYFPEPVTVSWNSGALTSGVHTFPAVLQSSGLYSLSSVVTVPSSSLGTQTYICNVNHKPSNTKVDKKVEPKSCDKTHTCPPCPAPEAAGGPSVFLFPPKPKDTLMISRTPEVTCVVVSVSHEDPEVKFNWYVDGVEVHNAKTKPREEQYNSTYRVVSVLTVLHQDWLNGKEYKCKVSNKALPAPIEKTISKAKGQPREPQVYTLPPSREEMTKNQVSLSCAVKGFYPSDIAVEWESNGQPENNYKTTPPVLDSDGSFFLVSKLTVDKSRWQQGNVFSCSVMHEALHNRFTQKSLSLSPGK
light: DIQMTQSPSSLSASVGDRVTITCRSSQSLFDSDDGNTYLDWFQQKPGQSPKLLIQTLSYRASGVPSRFSGSGSGTDFTLTISSLQPEDFATYYCMQRMEFPLTFGGGTKVEIKRTVAAPSVFIFPPSDEQLKSGTASVVCLLNNFYPREAKVQWKVDNALQSGNSQESVTEQDSKDSTYSLSSTLTLSKADYEKHKVYACEVTHQGLSSPVTKSFNRGEC
chain: EIVLTQSPATLSASPGERVTLSCSASSSVSYMNWYQQKPGQAPRRWIYDSSKLASGVPARFSGSGSGRDYTLTISSLEPEDFAVYYCQQWSRNPPTFGGGTKVEIKGGSEGKSSGSGSESKSTGGSQVQLVQSGAEVKKPGSSVKVSCKASGYTFTRSTMHWVRQAPGQGLEWMGYINPSSAYTNYAQKFQGRVTLTADKSTSTAYMELSSLRSEDTAVYYCASPQVHYDYGGFPYWGQGTLVTVSSEPKSSDKTHTCPPCPAPEAAGGPSVFLFPPKPKDTLMISRTPEVTCVVVSVSHEDPEVKFNWYVDGVEVHNAKTKPREEQYNSTYRVVSVLTVLHQDWLNGKEYKCKVSNKALPAPIEKTISKAKGQPREPQVYTLPPSREEMTKNQVSLWCLVKGFYPSDIAVEWESNGQPENNYKTTPPVLDSDGSFFLYSKLTVDKSRWQQGNVFSCSVMHEALHNHYTQKSLSLSPGKGGSEGKSSGSGSESKSTGGSAIQLTQSPSSLSASVGDRVTITCRASSSVSYIHWFQQKPGKAPKPLIYATSNLASGVPSRFSGSGSGTDFTLTISSLQPEDFATYYCQQWTSNPPTFGQGTKLEIKGGSEGKSSGSGSESKSTGGSQVQLVQSGAEVKKPGSSVKVSCKASGYTFTSYNMHWVRQAPGQGLEWMGAIYPGNGDTSYAQKFQGRVTITADKSTSTAYMELSSLRSEDTAVYYCARSTYYGGDWYFNVWGQGTLVTVSS
B2: C923B36 CD79bxCD20xCD3 trispecific antibody (other)
heavy: QVQLQESGPGLVKPSETLSLTCSVSGASISSFYWSWIRQPADEGLEWIGRISPSGKTNYIPSLKSRIIMSLDASKNQFSLRLNSVTAADTAMYYCARGEYSGTYSYSFDVWGQGTMVTVSSASTKGPSVFPLAPSSKSTSGGTAALGCLVKDYFPEPVTVSWNSGALTSGVHTFPAVLQSSGLYSLSSVVTVPSSSLGTQTYICNVNHKPSNTKVDKKVEPKSCDKTHTCPPCPAPEAAGGPSVFLFPPKPKDTLMISRTPEVTCVVVSVSHEDPEVKFNWYVDGVEVHNAKTKPREEQYNSTYRVVSVLTVLHQDWLNGKEYKCKVSNKALPAPIEKTISKAKGQPREPQVYTLPPSREEMTKNQVSLSCAVKGFYPSDIAVEWESNGQPENNYKTTPPVLDSDGSFFLVSKLTVDKSRWQQGNVFSCSVMHEALHNRFTQKSLSLSPGK
light: DIVMTQSPLSLSVTPGEPASISCRSSESLLDSEDGNTYLDWFLQKPGQSPQLLIYTLSYRASGVPDRFSGSGSDTDFTLHISSLEAEDVGLYYCMQRMEFPLTFGQGTKVEIKRTVAAPSVFIFPPSDEQLKSGTASVVCLLNNFYPREAKVQWKVDNALQSGNSQESVTEQDSKDSTYSLSSTLTLSKADYEKHKVYACEVTHQGLSSPVTKSFNRGEC
chain: B1 chain
B3: C923B73 CD79bxCD20xCD3 trispecific antibody (other)
heavy: QVQLQQSGPGLVKPSQTLSLTCAISGDSVSSNSATWNWIRQSPSRGLEWLGRTYYRSKWYNDYTVSVKSRITINPDTSKNQFSLQLNSVTPEDTAVYYCTRVDIAFDYWGQGTLVTVSSASTKGPSVFPLAPSSKSTSGGTAALGCLVKDYFPEPVTVSWNSGALTSGVHTFPAVLQSSGLYSLSSVVTVPSSSLGTQTYICNVNHKPSNTKVDKKVEPKSCDKTHTCPPCPAPEAAGGPSVFLFPPKPKDTLMISRTPEVTCVVVSVSHEDPEVKFNWYVDGVEVHNAKTKPREEQYNSTYRVVSVLTVLHQDWLNGKEYKCKVSNKALPAPIEKTISKAKGQPREPQVYTLPPSREEMTKNQVSLSCAVKGFYPSDIAVEWESNGQPENNYKTTPPVLDSDGSFFLVSKLTVDKSRWQQGNVFSCSVMHEALHNRFTQKSLSLSPGK
light: QTVVTQPPSVSEAPRQRVTISCSGSSSNIGNHGVNWYQQLPGKAPKLLIYNDDLLPSGVSDRFSGSTSGTSGSLAISGLQSEDEADYYCAAWDDSLNGVVFGGGTKLTVLGQPKAAPSVTLFPPSSEELQANKATLVCLISDFYPGAVTVAWKADSSPVKAGVETTTPSKQSNNKYAASSYLSLTPEQWKSHRSYSCQVTHEGSTVEKTVAPTECS
chain: B1 chain
B4: 79C3B645 CD79bxCD3 bispecific antibody (bispecific antibody, human IgG1, lambda, L234A L235A)
heavy: B3 heavy
light: B3 light
chain: EIVLTQSPATLSASPGERVTLSCSASSSVSYMNWYQQKPGQAPRRWIYDSSKLASGVPARFSGSGSGRDYTLTISSLEPEDFAVYYCQQWSRNPPTFGGGTKVEIKGGSEGKSSGSGSESKSTGGSQVQLVQSGAEVKKPGSSVKVSCKASGYTFTRSTMHWVRQAPGQGLEWMGYINPSSAYTNYAQKFQGRVTLTADKSTSTAYMELSSLRSEDTAVYYCASPQVHYDYGGFPYWGQGTLVTVSSEPKSSDKTHTCPPCPAPEAAGGPSVFLFPPKPKDTLMISRTPEVTCVVVSVSHEDPEVKFNWYVDGVEVHNAKTKPREEQYNSTYRVVSVLTVLHQDWLNGKEYKCKVSNKALPAPIEKTISKAKGQPREPQVYTLPPSREEMTKNQVSLWCLVKGFYPSDIAVEWESNGQPENNYKTTPPVLDSDGSFFLYSKLTVDKSRWQQGNVFSCSVMHEALHNHYTQKSLSLSPGK
B5: 79C3B605 CD79bxCD3 bispecific antibody (bispecific antibody, human IgG1, kappa, L234A L235A)
heavy: B2 heavy
light: B2 light
chain: B4 chain
B6: 79C3B650 CD79bxCD3 bispecific antibody (bispecific antibody, human IgG1, kappa, L234A L235A)
heavy: B1 heavy
light: B1 light
chain: B4 chain

molecular target: T1, human CD79b and CD20 co-expressed on …; test: cell-based or functional assay

| Binder | IC50, T-cell killing of OCI-Ly10 (Incucyte) [nM] |
| --- | --- |
| B1 | 14.8 |
| B2 | 42 |
| B3 | 132 |

molecular target: T2, human CD79b on the cell surface; test: cell-based or functional assay

| Binder | IC50, T-cell killing of OCI-Ly10 (Incucyte) [nM] |
| --- | --- |
| B4 | 18 |
| B5 | 54.3 |
| B6 | 7 |

molecular target: T1, human CD79b and CD20 co-expressed on …; test: cell-based or functional assay; remark: another data set of the same source

| Binder | IC50, T-cell killing of HBL-1 (Incucyte) [nM] |
| --- | --- |
| B1 | 4.89 |
| B2 | 31 |
| B3 | 6.8 |

molecular target: T2, human CD79b on the cell surface; test: cell-based or functional assay; remark: another data set of the same source

| Binder | IC50, T-cell killing of HBL-1 (Incucyte) [nM] |
| --- | --- |
| B4 | 7.19 |
| B5 | 29.5 |
| B6 | 43.3 |
